Reference: the supplement of paper PMC11208486
± gives the uncertainty stated by the source.

What was measured:
[1] = melting temperature (ThermoFMN); higher = more thermostable
Method: (§1)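 Purified His-tagged ene reductases (1 mg/ml) in 50 mM sodium phosphate pH 7.4 with 0-30% (v/v) organic co-solvent. Melting temperature was measured by the ThermoFMN assay (FMN fluorescence, 20-90 °C at 1 °C/min, inflection point, triplicate). Specific initial activity was measured with 10 mM cyclohex-2-enone and 0.2 mM NAD(P)H (NADH for LacER) as A340 depletion, at room temperature (DMSO, 2-propanol, n-propanol) or 25 °C (EtOH, MeOH), in triplicate. The TsOYE Tm is above the 90 °C measurement range.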

[2] = specific initial activity, cyclohex-2-enone reduction (U mg-1); higher = more active
Method: as §1, with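 “reductases” for “reductases (1 mg/ml)”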

[3] = co-solvent: 2-propanol, co-solvent concentration (% v/v): 0
[4] = co-solvent: 2-propanol, co-solvent concentration (% v/v): 5
[5] = co-solvent: 2-propanol, co-solvent concentration (% v/v): 10
[6] = co-solvent: 2-propanol, co-solvent concentration (% v/v): 15
[7] = co-solvent: 2-propanol, co-solvent concentration (% v/v): 20
[8] = co-solvent: 2-propanol, co-solvent concentration (% v/v): 25
[9] = co-solvent: 2-propanol, co-solvent concentration (% v/v): 30
[10] = co-solvent: dimethyl sulfoxide, co-solvent concentration (% v/v): 0
[11] = co-solvent: dimethyl sulfoxide, co-solvent concentration (% v/v): 5
[12] = co-solvent: dimethyl sulfoxide, co-solvent concentration (% v/v): 10
[13] = co-solvent: dimethyl sulfoxide, co-solvent concentration (% v/v): 15
[14] = co-solvent: dimethyl sulfoxide, co-solvent concentration (% v/v): 20
[15] = co-solvent: dimethyl sulfoxide, co-solvent concentration (% v/v): 25
[16] = co-solvent: dimethyl sulfoxide, co-solvent concentration (% v/v): 30
[17] = co-solvent: ethanol, co-solvent concentration (% v/v): 0
[18] = co-solvent: ethanol, co-solvent concentration (% v/v): 5
[19] = co-solvent: ethanol, co-solvent concentration (% v/v): 10
[20] = co-solvent: ethanol, co-solvent concentration (% v/v): 15
[21] = co-solvent: ethanol, co-solvent concentration (% v/v): 20
[22] = co-solvent: ethanol, co-solvent concentration (% v/v): 25
[23] = co-solvent: ethanol, co-solvent concentration (% v/v): 30
[24] = co-solvent: methanol, co-solvent concentration (% v/v): 0
[25] = co-solvent: methanol, co-solvent concentration (% v/v): 5
[26] = co-solvent: methanol, co-solvent concentration (% v/v): 10
[27] = co-solvent: methanol, co-solvent concentration (% v/v): 15
[28] = co-solvent: methanol, co-solvent concentration (% v/v): 20
[29] = co-solvent: methanol, co-solvent concentration (% v/v): 25
[30] = co-solvent: methanol, co-solvent concentration (% v/v): 30
[31] = co-solvent: n-propanol, co-solvent concentration (% v/v): 0
[32] = co-solvent: n-propanol, co-solvent concentration (% v/v): 5
[33] = co-solvent: n-propanol, co-solvent concentration (% v/v): 10
[34] = co-solvent: n-propanol, co-solvent concentration (% v/v): 15
[35] = co-solvent: n-propanol, co-solvent concentration (% v/v): 20
[36] = co-solvent: n-propanol, co-solvent concentration (% v/v): 25
[37] = co-solvent: n-propanol, co-solvent concentration (% v/v): 30

Sequence: MARKLFTPITIKDMTLKNRIVMSPMCMYSSHEKDGKLTPFHMAHYISRAIGQVGLIIVEASAVNPQGRITDQDLGIWSDEHIEGFAKLTEQVKEQGSKIGIQLAHAGRKAELEGDIFAPSAIAFDEQSATPVEMSAEKVKETVQEFKQAAARAKEAGFDVIEIHAAHGYLIHEFLSPLSNHRTDEYGGSPENRYRFLREIIDEVKQVWDGPLFVRVSASDYTDKGLDIADHIGFAKWMKEQGVDLIDCSSGALVHADINVFPGYQVSFAEKIREQADMATGAVGMITDGSMAEEILQNGRADLIFIGRELLRDPFFARTAAKQLNTEIPAPVQYERGW
- melting temperature [1, 3]: 50.7 ± 0.58 °C
- melting temperature [1, 4]: 40 ± 1 °C
- melting temperature [1, 5]: 36.3 ± 0.58 °C
- melting temperature [1, 6]: 34 ± 1 °C
- melting temperature [1, 7]: 31.3 ± 0.58 °C
- melting temperature [1, 8]: 27.3 ± 0.58 °C
- melting temperature [1, 9]: 24.3 ± 3.8 °C
- melting temperature [1, 10]: 51 °C
- melting temperature [1, 11]: 49.3 ± 0.58 °C
- melting temperature [1, 12]: 48 °C
- melting temperature [1, 13]: 46.7 ± 0.58 °C
- melting temperature [1, 14]: 46 °C
- melting temperature [1, 15]: 45 °C
- melting temperature [1, 16]: 44 °C
- melting temperature [1, 17]: 51 °C
- melting temperature [1, 18]: 45 ± 1.7 °C
- melting temperature [1, 19]: 42.3 ± 0.58 °C
- melting temperature [1, 20]: 38.3 ± 0.58 °C
- melting temperature [1, 21]: 35 ± 1.7 °C
- melting temperature [1, 22]: 33 ± 1 °C
- melting temperature [1, 23]: 31 °C
- melting temperature [1, 24]: 51 °C
- melting temperature [1, 25]: 48.3 ± 0.58 °C
- melting temperature [1, 26]: 43.3 ± 1.5 °C
- melting temperature [1, 27]: 40 ± 1.7 °C
- melting temperature [1, 28]: 39.3 ± 1.1 °C
- melting temperature [1, 29]: 36.7 ± 0.58 °C
- melting temperature [1, 30]: 33 ± 1 °C
- melting temperature [1, 31]: 51 °C
- melting temperature [1, 32]: 43.3 ± 1.1 °C
- melting temperature [1, 33]: 35.3 ± 0.58 °C
- melting temperature [1, 34]: 29.7 ± 0.58 °C
- melting temperature [1, 35]: 28.3 ± 0.58 °C
- melting temperature [1, 36]: 27.7 ± 0.58 °C
- melting temperature [1, 37]: 26.7 ± 0.58 °C
- specific initial activity [2, 3]: 0.49 ± 0.07
- specific initial activity [2, 4]: 0.34 ± 0.03
- specific initial activity [2, 5]: 0.21 ± 0.01
- specific initial activity [2, 6]: 0.16 ± 0.05
- specific initial activity [2, 7]: 0.11 ± 0.07
- specific initial activity [2, 8]: 0.14 ± 0.03
- specific initial activity [2, 9]: 0.06 ± 0.09
- specific initial activity [2, 10]: 0.52 ± 0.07
- specific initial activity [2, 11]: 0.4 ± 0.01
- specific initial activity [2, 12]: 0.33 ± 0.01
- specific initial activity [2, 13]: 0.25 ± 0.01
- specific initial activity [2, 14]: 0.17 ± 0.02
- specific initial activity [2, 15]: 0.1 ± 0.01
- specific initial activity [2, 16]: 0.05 ± 0.05
- specific initial activity [2, 17]: 0.46 ± 0.03
- specific initial activity [2, 18]: 0.33 ± 0.01
- specific initial activity [2, 19]: 0.21 ± 0.03
- specific initial activity [2, 20]: 0.07 ± 0.02
- specific initial activity [2, 21]: 0.03 ± 0.01
- specific initial activity [2, 22]: 0.03 ± 0.01
- specific initial activity [2, 23]: 0.02 ± 0.01
- specific initial activity [2, 24]: 0.51 ± 0.12
- specific initial activity [2, 25]: 0.39 ± 0.01
- specific initial activity [2, 26]: 0.3 ± 0.01
- specific initial activity [2, 27]: 0.13 ± 0.02
- specific initial activity [2, 28]: 0.12 ± 0.09
- specific initial activity [2, 29]: 0.07 ± 0.05
- specific initial activity [2, 30]: 0.05 ± 0.03
- specific initial activity [2, 31]: 0.5 ± 0.12
- specific initial activity [2, 32]: 0.25 ± 0.02
- specific initial activity [2, 33]: 0.17 ± 0.01
- specific initial activity [2, 34]: 0.12 ± 0.01
- specific initial activity [2, 35]: 0.05 ± 0.03
- specific initial activity [2, 36]: 0 ± 0.03
- specific initial activity [2, 37]: 0 ± 0.08
